Results from patent US20150322119A1.

What was measured:
[1] = biological target: murine FcγRIIB, soluble form (mouse) (UniProt P08101); assay: SPR, equilibrium KD
[2] = biological target: murine FcγRIII, soluble form (mouse) (UniProt P08508); assay: SPR, equilibrium KD
[3] = biological target: mouse FcRn (mouse) (UniProt Q61559); assay: SPR, FcRn coated on CM5 chip, antibody flowed at pH 6.0
[4] = biological target: murine FcγRI extracellular domain with C-terminal 6×His-tag (mouse) (UniProt P26151); assay: SPR, equilibrium KD
[5] = biological target: murine FcγRIV, soluble form (mouse); assay: SPR, equilibrium KD

Chain of UniProt P08101 (P08101 30-207 limits assumed): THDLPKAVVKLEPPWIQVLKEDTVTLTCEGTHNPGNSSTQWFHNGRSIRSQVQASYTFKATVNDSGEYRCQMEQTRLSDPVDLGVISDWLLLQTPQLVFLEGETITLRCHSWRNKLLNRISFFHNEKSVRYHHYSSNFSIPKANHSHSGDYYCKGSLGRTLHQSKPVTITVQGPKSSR
Chain of UniProt P08508 (P08508 31-215 limits assumed): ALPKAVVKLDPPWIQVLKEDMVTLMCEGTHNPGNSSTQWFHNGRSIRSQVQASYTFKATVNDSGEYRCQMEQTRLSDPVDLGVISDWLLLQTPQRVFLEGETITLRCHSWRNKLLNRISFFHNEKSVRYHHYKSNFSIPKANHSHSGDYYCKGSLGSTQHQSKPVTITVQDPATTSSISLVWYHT
Chain of UniProt Q61559 (Q61559 22-297 limits assumed): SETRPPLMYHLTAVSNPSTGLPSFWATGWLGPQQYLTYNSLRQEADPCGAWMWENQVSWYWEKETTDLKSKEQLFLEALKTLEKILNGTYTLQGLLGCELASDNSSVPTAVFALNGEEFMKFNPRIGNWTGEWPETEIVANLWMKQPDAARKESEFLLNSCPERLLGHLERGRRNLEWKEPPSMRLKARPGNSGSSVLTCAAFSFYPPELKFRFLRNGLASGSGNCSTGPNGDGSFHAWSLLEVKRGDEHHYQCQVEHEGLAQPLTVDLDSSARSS
Chain of mouse anti-mouse CTLA-4 antibody 9D9, mouse IgG2a isotype (P01863 whole entry): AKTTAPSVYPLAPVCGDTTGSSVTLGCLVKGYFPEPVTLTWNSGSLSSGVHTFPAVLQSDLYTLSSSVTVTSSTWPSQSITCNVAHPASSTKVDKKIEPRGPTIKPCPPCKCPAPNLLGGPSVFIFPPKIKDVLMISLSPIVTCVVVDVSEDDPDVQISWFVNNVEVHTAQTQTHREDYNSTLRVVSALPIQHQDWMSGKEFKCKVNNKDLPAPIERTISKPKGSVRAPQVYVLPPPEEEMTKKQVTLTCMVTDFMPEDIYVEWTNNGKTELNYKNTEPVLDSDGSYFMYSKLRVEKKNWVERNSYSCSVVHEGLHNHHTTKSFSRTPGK
Chain of UniProt P26151 (P26151 other isoform, or with tags, fused parts or gaps): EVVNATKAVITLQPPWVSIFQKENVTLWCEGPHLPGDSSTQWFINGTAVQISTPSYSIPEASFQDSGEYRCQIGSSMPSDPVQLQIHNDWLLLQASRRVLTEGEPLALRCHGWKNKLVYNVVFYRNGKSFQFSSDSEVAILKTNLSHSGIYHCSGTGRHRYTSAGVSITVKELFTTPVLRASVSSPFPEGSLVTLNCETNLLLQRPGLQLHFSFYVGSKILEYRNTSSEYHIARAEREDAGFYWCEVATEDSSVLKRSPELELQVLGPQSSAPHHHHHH

Row | Substance | Kd [1] [nM] | Kd [2] [nM] | Kd [3] [nM] | Kd [4] [nM] | Kd [5] [nM]
1 | mouse anti-mouse CTLA-4 antibody 9D9, mouse IgG1 isotype | 479 | 1880 | 22.4 |  | 
2 | mouse anti-mouse CTLA-4 antibody 9D9, mouse IgG1 isotype containing a D265A mutation (from UniProt P01868 1-324) |  |  | 24.6 |  | 
3 | mouse anti-mouse CTLA-4 antibody 9D9, mouse IgG2a isotype | 1410 | 1500 | 13.5 | 32.7 | 29.4
4 | mouse anti-mouse CTLA-4 antibody 9D9, mouse IgG2b isotype (original isotype, derived from the hybridoma) | 748 | 2440 | 19.7 |  | 56.3
